Laboratory results reported in patent publication US20250179197A1.

Legend:
[1] = biological target: T1, IL-18 receptor (IL-18Rα and IL-18Rβ) on HEK-Blue IL-18 cells (UniProt Q13478); assay: cell-based or functional assay
T1 sequence (looked up) 1: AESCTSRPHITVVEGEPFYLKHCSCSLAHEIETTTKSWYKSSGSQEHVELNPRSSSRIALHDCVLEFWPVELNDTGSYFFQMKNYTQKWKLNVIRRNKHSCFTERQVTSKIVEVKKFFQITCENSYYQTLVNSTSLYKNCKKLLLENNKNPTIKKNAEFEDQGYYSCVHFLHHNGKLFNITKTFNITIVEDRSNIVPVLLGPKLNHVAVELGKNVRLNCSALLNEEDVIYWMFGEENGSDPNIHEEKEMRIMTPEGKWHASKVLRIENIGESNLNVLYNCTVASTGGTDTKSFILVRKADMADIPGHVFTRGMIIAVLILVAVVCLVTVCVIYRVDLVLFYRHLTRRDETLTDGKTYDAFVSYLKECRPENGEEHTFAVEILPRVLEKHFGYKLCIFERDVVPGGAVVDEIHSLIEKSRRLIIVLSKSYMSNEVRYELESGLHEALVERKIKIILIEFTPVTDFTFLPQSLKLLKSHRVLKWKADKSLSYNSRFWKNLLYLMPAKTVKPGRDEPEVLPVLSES
T1 sequence (looked up) 2: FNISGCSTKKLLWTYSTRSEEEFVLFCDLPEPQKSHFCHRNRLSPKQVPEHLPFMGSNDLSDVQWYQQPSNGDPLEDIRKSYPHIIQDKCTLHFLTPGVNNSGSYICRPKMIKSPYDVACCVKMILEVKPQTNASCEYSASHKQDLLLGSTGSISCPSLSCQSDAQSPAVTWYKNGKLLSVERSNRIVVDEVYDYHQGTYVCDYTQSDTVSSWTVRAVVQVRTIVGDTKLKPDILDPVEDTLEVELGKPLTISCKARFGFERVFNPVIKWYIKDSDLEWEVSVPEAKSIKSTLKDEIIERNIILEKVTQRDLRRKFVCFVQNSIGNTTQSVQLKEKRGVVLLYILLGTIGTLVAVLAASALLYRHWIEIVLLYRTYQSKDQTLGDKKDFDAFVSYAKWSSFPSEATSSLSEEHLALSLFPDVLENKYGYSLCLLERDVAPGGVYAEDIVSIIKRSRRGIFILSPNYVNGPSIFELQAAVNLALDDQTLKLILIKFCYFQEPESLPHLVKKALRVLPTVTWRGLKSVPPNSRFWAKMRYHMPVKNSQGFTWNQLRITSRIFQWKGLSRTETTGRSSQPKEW

[2] = biological target: T2, IL-18 receptor (IL-18Rα/IL-18Rβ) on human PBMCs (human) (UniProt Q13478); assay: cell-based or functional assay
T2 sequence (looked up) 1: T1 sequence (looked up) 1
T2 sequence (looked up) 2: T1 sequence (looked up) 2

Human IL-18, sequence (Q14116 37-193 limits assumed): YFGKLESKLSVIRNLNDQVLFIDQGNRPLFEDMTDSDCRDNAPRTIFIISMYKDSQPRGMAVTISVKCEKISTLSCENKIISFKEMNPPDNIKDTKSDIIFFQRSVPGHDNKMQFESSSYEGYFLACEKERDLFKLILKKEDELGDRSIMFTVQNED

HEK-Blue: Abs 405 at 100 nM [1]: 2.6 absorbance
HEK-Blue: Fold over background [1]: 14.4 fold
Calculated maximum induction of IFN-γ after 24 hours, donor 1 [2]: 42000
Calculated maximum induction of IFN-γ after 24 hours, donor 2 [2]: 5300
Calculated maximum induction of IFN-γ after 24 hours, donor 3 [2]: 89000
Calculated maximum induction of IFN-γ after 24 hours, donor 4 [2]: 69000
Calculated maximum induction of IFN-γ after 24 hours, donor 5 [2]: 150000
Calculated maximum induction of IFN-γ after 24 hours, donor 6 [2]: 28000
Substance: Human IL-18 (from UniProt Q14116 37-193) (ligand)
